For orientation: EC50 means the concentration needed to bring the measured effect to its halfway point. Lower therefore signals a more potent agent. By Kd is commonly meant the free concentration of one partner at which half of the binding sites on the other are occupied at equilibrium, for simple one-to-one binding. A low value points to a tighter complex. Usually koff stands for a measure of how fast the partners let go of each other. Higher therefore signals a short-lived complex. Broadly, the kon is the rate constant with which the complex forms. Read a high kon as faster complex formation.

Substitutions are numbered along the chain they refer to. Numbers in names are those of the source.

Test [1] has as its target T1, human PD-1 expressed on cells (human, UniProt Q15116 25-288).
T1 construct: whole, on cells; cell line named under assay; also called CHO-S hPD-1; Raji PD-1
In words: flow cytometry, CHO-S hPD-1. As to the method:
CHO-S hPD-1 cells were incubated with a 5-fold serial dilution of the indicated humanized antibodies. Antibody binding was detected with goat anti-human IgG-PE. MFI were plotted over the antibody concentration to obtain EC50 values.

In test [2] the target is T2, hPD-1 Avi-Tag Biotin (AcroBiosystems PD1-H82E4) (human, UniProt Q15116 25-167, biotin on Avi-Tag).
T2 construct: bought; also called human PD-1
Nature of the test: SPR, Ab captured, PD-1 analyte. As to the method:
(§1) Anti-human Fc IgG (Jackson) was immobilized on amine reactive CM5 chips (GE Healthcare) using 1×HBS-EP+ running buffer (GE Healthcare). The test antibodies were captured at flow rate 10 μl/min with 30 s contact time. […] Regeneration was carried out with 10 mM Glycine-HCl, pH 1.5 at flow rate 10 μL/min. This protocol is to be used, unless stated otherwise, in determination of Kd wherever used to define the KD of antibodies specified herein, with adaptions where necessary with regard to the nature of the interaction partners.
On the technique in general: In SPR one partner is held on a chip, and binding of the other changes the refractive index at the surface.

The target in test [3] is T3, cynoPD-1 His (AcroBiosystems PD1-C5223) (cynomolgus monkey, UniProt B0LAJ3 25-170).
T3 construct: also called cPD-1; cynomolgus PD-1 His-tagged
In words: SPR, Ab captured, PD-1 analyte. As to the method: as §1

T3 sequence (B0LAJ3 entry or part of it limits assumed): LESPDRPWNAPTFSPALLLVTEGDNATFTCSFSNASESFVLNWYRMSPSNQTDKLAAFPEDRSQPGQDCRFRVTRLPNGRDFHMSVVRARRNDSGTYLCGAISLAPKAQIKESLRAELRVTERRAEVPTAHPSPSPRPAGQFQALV
T1 sequence (Q15116 25-288): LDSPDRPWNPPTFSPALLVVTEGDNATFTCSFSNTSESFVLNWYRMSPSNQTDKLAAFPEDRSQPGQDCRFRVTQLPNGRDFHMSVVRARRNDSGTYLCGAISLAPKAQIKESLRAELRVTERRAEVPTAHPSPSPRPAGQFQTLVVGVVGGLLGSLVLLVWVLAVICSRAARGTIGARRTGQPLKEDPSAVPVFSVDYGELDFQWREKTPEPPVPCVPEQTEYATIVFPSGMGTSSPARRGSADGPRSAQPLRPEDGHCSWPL
T2 sequence (Q15116 25-167 limits assumed): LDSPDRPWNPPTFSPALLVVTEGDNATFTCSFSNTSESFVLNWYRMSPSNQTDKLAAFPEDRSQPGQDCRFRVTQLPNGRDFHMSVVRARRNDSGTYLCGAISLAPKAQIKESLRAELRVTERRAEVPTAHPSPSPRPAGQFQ

B1: z5-XVT458 (antibody, human IgG1, kappa, V domains shown)
VH: QVQLVQSGAEVKKPGASVKVSCKASGYTFTNFYIHWVRQAPGQGLEWMGSIYPNYGDTAYNQKFKDRATMTTDKSTSTAYMELRSLRSDDTAVYYCARGYSYAMDYWGQGTTVTVSS
VL: DIQMTQSPSSVSASVGDRVTITCSASQGISGDLNWYQQKPGKAPKLLIYHTSSLHSGVPSRFSGSGSGTDFTLTISSLQPEDFATYYCQYYSKDLLTFGGGTKLEIKR
notes: hIgG1; numbering as for z1; also called GH + V067A + T073K
Take B1: in test [1], a half-maximal response (EC50) required 4.51 nM and the “Top MFI” value was 46200 MFI. Also, in test [2], the affinity, expressed as Kd, was 15.9 nM; the koff came to 0.00145 s⁻¹; the kon was 91400 M⁻¹ s⁻¹. In test [3], this molecule returned a Kd of 57.3 nM, a koff of 0.00336 s⁻¹ and a kon of 58600 M⁻¹ s⁻¹.

B2: z7-XVT458 (antibody, human IgG1, kappa, V domains shown)
VH: B1 VH with T72V
VL: B1 VL
notes: hIgG1; numbering as for z1; also called GH + V067A + T071V + T073K
With B2, in test [1], it took 3.88 nM to reach a half-maximal effect (EC50) and the “Top MFI” value was found to be 46000 MFI. In test [2], this molecule gave a Kd of 14.3 nM, a koff of 0.00136 s⁻¹ and a kon of 95700 M⁻¹ s⁻¹. Also, in test [3], the Kd is 54.4 nM, the koff amounted to 0.00321 s⁻¹ and the on-rate (kon) was 58900 M⁻¹ s⁻¹.

B3: z6-XVT458 (antibody, human IgG1, kappa, V domains shown)
VH: B1 VH with A68V, T72V
VL: B1 VL
notes: hIgG1; numbering as for z1; also called GH + T071V + T073K
Take B3: in test [1], the half-maximal effective concentration (EC50) amounted to 3.93 nM and the “Top MFI” value came out at 46800 MFI. Further, in test [2], the equilibrium dissociation constant (Kd) was determined as 14.5 nM, the koff turned out to be 0.00133 s⁻¹ and the kon is 92000 M⁻¹ s⁻¹. In test [3], this molecule registered a Kd of 53.8 nM, an off-rate constant (koff) of 0.00314 s⁻¹ and an on-rate (kon) of 58400 M⁻¹ s⁻¹.

B4: z3-XVT458 (antibody, human IgG1, kappa, V domains shown)
VH: B1 VH with A68V
VL: B1 VL
notes: hIgG1; numbering as for z1; also called GH + T073K
Regarding B4, in test [1], the EC50 is 5.47 nM and the “Top MFI” value was 46200 MFI. In test [2], this molecule displayed a Kd of 16.2 nM, an off-rate (koff) of 0.00142 s⁻¹ and an on-rate (kon) of 87400 M⁻¹ s⁻¹. In addition, in test [3], the Kd stood at 57.7 nM, the koff came to 0.00331 s⁻¹ and the kon came to 57400 M⁻¹ s⁻¹.

B5: z1-XVT458 (antibody, human IgG1, kappa, V domains shown)
VH: B1 VH with K74T
VL: B1 VL
notes: hIgG1; also called GH + V067A
On to B5, for which, in test [1], the midpoint of the response, the EC50, lay at 5.85 nM and the “Top MFI” value is 45200 MFI. In test [2], binding was characterised by a dissociation constant (Kd) of 15.9 nM, the off-rate (koff) is 0.00146 s⁻¹ and the kon was 92300 M⁻¹ s⁻¹. In addition, in test [3], the dissociation constant Kd was determined as 57.3 nM, the koff is 0.00359 s⁻¹ and the kon is 62700 M⁻¹ s⁻¹.

B6: z0-XVT458 (antibody, human IgG1, kappa, V domains shown)
VH: B1 VH with A68V, K74T
VL: B1 VL
notes: hIgG1; also called GH + uVL
For B6, in test [1], the response was half-maximal at 5.74 nM (EC50) and the “Top MFI” value is 45200 MFI. In test [2], this molecule gave a Kd of 16.1 nM, an off-rate constant (koff) of 0.00147 s⁻¹ and a kon of 91100 M⁻¹ s⁻¹. In test [3], the affinity, expressed as Kd, was 56.7 nM; the koff was 0.00358 s⁻¹; the on-rate (kon) was 63200 M⁻¹ s⁻¹.

B7: z4-XVT458 (antibody, human IgG1, kappa, V domains shown)
VH: B1 VH with T72V, K74T
VL: B1 VL
notes: hIgG1; numbering as for z1; also called GH + V067A + T071V
As for B7, in test [1], the response was half-maximal at 4.54 nM (EC50) and the “Top MFI” value worked out at 46700 MFI. In test [2], this molecule showed a Kd of 13.3 nM, a koff of 0.00131 s⁻¹ and a kon of 98800 M⁻¹ s⁻¹. In test [3], this molecule displayed a Kd of 51 nM, a koff of 0.00323 s⁻¹ and an on-rate constant (kon) of 63300 M⁻¹ s⁻¹.

Values taken from patent US20260207767A1 (ANAVEON, published 2026).
